From US20260274968A1

Key:
[1] = molecular target: human recombinant IL-18-BP (human) (UniProt O95998); test: cell-based or functional assay
[2] = molecular target: human recombinant IL-18-BP (human) (UniProt O95998)
[3] = molecular target: human IL-18 receptor complex (IL-18Rα/β) (human) (UniProt Q13478)
human IL-18 receptor complex (IL-18Rα/β) (human), sequence (Q13478 19-541, chain 1 of 2): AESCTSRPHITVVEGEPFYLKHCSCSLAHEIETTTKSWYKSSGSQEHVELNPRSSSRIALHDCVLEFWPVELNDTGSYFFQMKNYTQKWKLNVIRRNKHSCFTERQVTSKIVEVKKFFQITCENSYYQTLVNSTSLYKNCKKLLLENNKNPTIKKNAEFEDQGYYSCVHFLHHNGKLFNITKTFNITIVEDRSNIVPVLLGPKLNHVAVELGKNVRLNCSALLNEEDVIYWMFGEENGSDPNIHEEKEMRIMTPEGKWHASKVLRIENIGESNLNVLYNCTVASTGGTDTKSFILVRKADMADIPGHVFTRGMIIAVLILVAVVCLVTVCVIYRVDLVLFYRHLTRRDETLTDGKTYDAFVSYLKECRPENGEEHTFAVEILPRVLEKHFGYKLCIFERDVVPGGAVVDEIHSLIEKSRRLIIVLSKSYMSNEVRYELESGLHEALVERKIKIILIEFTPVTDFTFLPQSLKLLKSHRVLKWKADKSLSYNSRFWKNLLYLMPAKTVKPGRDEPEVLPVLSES
human IL-18 receptor complex (IL-18Rα/β) (human), sequence (O95256 20-599, chain 2 of 2, further chain): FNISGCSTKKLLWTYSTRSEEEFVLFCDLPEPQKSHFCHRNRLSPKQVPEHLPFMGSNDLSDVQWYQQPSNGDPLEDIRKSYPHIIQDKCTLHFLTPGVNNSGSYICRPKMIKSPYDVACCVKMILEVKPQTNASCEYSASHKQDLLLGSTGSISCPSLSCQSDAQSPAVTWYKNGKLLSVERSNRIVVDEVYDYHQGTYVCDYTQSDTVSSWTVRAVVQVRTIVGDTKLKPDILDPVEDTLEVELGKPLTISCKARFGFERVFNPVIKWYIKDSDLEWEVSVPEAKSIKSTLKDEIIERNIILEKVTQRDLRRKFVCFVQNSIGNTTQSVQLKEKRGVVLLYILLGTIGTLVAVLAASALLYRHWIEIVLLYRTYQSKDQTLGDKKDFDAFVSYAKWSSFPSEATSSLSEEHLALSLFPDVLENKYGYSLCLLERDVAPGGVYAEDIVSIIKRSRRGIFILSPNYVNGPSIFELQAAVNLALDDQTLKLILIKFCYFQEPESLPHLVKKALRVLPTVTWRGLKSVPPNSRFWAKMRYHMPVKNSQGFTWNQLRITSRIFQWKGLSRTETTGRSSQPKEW

human recombinant IL-18-BP (human), sequence (O95998 31-194 limits assumed): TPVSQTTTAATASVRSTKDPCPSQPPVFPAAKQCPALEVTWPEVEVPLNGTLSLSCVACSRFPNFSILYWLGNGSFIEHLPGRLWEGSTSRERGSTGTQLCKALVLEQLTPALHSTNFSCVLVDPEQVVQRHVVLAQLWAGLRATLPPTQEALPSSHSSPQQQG
recombinant human mature IL-18, sequence (Q14116 37-193): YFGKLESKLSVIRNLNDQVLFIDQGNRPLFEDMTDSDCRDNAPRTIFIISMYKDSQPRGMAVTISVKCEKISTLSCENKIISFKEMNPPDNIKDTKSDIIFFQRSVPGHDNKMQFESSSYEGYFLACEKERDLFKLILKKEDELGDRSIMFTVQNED

recombinant human mature IL-18 (from UniProt Q14116 37-193) (ligand)
EC50-SEAP (HEK Blue IL-18), fold attenuation by 1.25 µg/ml hrIL-18-BP [1]: > 1000 fold | EC50-SEAP, HEK-Blue IL-18 reporter cells, rhIL-18 titrated in medium with 1.25 µg/ml rhIL-18BP (row 'Human rIL-18 + BP') [2]: > 1 ng/mL | EC50-SEAP, HEK-Blue IL-18 reporter cells, rhIL-18 titrated in medium alone (row 'Human rIL-18') [3]: 0.0317 ng/mL
